Where “and” joins values, the source holds several entries; their conditions need not be identical. Identical values can stand only once.
T1: apoflavodoxin from Anabaena PCC 7119, wild type (Anabaena PCC 7119, UniProt P0A3E0 3-170)
T1 chain: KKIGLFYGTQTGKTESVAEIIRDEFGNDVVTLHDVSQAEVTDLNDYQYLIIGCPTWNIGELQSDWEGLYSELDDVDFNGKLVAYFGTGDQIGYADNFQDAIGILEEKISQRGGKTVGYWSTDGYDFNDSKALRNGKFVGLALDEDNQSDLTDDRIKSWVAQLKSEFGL

T2: apoflavodoxin from Anabaena PCC 7119, F98N mutant (Anabaena PCC 7119, UniProt P0A3E0 3-170, F98N)
T2 sequence: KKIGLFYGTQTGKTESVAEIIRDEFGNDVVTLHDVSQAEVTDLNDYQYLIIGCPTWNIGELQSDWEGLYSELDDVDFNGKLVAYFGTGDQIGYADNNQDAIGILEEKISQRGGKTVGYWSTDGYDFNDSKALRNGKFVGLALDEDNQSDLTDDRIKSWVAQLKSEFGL

T3: apoflavodoxin from Anabaena PCC 7119, L105A I109A double mutant (Anabaena PCC 7119, UniProt P0A3E0 3-170, L105A | I109A)
T3 sequence: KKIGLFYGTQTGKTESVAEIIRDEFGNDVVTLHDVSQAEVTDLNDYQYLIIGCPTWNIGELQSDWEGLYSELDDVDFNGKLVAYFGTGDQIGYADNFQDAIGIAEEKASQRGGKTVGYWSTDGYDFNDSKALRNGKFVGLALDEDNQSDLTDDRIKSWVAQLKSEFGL

T4: apoflavodoxin from Anabaena PCC 7119, wild type (Anabaena PCC 7119, UniProt P0A3E0 3-170)
T4 construct: flavodoxin (apo form, without FMN) from Anabaena PCC 7119; gene codon-optimised, synthesised by GenScript; The same protein was used native and urea-denatured (5 M urea, then diluted: state U*); the assays tell the two apart; [U-2H,15N,13C]-labelled for the NMR titration; also called AnFld; AnFld WT; source: E. coli BL21 (DE3), purified (Ni-His Trap, ULP1 cleavage, HiTrap Q, Superdex 75; …)
T4 sequence: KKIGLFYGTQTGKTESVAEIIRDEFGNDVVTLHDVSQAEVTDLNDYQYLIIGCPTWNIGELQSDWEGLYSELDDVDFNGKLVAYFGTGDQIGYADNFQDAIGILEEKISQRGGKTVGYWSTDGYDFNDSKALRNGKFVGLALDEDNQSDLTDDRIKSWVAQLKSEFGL

T5: apoflavodoxin from Anabaena PCC 7119, F98N mutant (Anabaena PCC 7119, UniProt P0A3E0 3-170, F98N)
T5 construct: also called AnFld F98N; I^T mimic; source: E. coli BL21 (DE3), purified (same protocol as AnFld WT); not shown: His6, N-terminal, cleaved; SUMO, N-terminal, cleaved
T5 sequence: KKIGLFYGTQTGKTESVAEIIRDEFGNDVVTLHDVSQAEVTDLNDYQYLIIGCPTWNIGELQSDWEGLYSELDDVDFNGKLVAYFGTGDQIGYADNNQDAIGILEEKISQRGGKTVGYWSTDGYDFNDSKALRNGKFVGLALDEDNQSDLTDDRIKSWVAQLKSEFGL

T6: apoflavodoxin from Anabaena PCC 7119, L105A I109A double mutant (Anabaena PCC 7119, UniProt P0A3E0 3-170, L105A | I109A)
T6 construct: flavodoxin (apo form) from Anabaena PCC 7119 with the two destabilising mutations L105A and I109A; also called AnFld 2A; AnFld2A; source: E. coli BL21 (DE3), purified (same protocol as AnFld WT); not shown: His6, N-terminal, cleaved; SUMO, N-terminal, cleaved
T6 sequence: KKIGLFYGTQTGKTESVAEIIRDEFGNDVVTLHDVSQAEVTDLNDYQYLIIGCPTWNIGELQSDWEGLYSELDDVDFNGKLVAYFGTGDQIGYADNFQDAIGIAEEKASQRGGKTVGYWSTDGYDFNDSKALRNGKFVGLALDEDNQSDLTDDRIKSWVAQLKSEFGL


Tests used:
[1] = target: Im7 (intermediate and unfolded states) (Escherichia coli) (UniProt Q03708); details: cited from earlier work
Chain of Im7 (intermediate and unfolded states) (Escherichia coli) (Q03708 whole entry): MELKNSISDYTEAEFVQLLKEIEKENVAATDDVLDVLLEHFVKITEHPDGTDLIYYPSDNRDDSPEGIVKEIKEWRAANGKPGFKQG

[2] = target: Im7 (native) (Escherichia coli) (UniProt Q03708); details: cited from earlier work
Chain of Im7 (native) (Escherichia coli) (Q03708 whole entry): as above

Fyn SH3 (unfolded) SH3 = Fyn SH3 (unfolded) SH3 (UniProt P06241); details: cited from earlier work
Chain of Fyn SH3 (unfolded) SH3 (P06241 82-143): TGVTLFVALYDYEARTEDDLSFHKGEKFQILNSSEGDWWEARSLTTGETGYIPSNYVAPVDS

Fyn SH3 (native) SH3 = Fyn SH3 (native) SH3 (UniProt P06241); details: cited from earlier work
Chain of Fyn SH3 (native) SH3 (P06241 82-143): as above

[3] = target: T1, apoflavodoxin from Anabaena PCC 7119, …; assay: ITC; 10 °C
[4] = target: T2, apoflavodoxin from Anabaena PCC 7119, …; assay: ITC; 10 °C
[5] = target: T3, apoflavodoxin from Anabaena PCC 7119, …; assay: ITC; first site (K1)
[6] = target: T3, apoflavodoxin from Anabaena PCC 7119, …; assay: ITC; second site (K2)
[7] = target: T1, apoflavodoxin from Anabaena PCC 7119, …; assay: initial fluorescence from kinetic fits
[8] = target: T4, apoflavodoxin from Anabaena PCC 7119, …; assay: AUC; sedimentation velocity of Spy with AnFld or AzoFld, 48,000 r.p.m., absorbance at 280 nm; 2DSA, genetic algorithm, Monte Carlo; details: both partners purified
[9] = target: T7, apoflavodoxin from Azotobacter vinelandii, C69A (Azotobacter vinelandii, UniProt P00324 1-180, C69A); assay: as above; details: both partners purified
T7 construct: flavodoxin (apo form) from Azotobacter vinelandii with C69A; The only AzoFld gene that the methods name is C69A; also called AzoFld; AzoFld C69A; source: E. coli BL21 (DE3), purified (same protocol as AnFld WT); not shown: His6, N-terminal, cleaved; SUMO, N-terminal, cleaved
T7 sequence (P00324 whole entry C70A): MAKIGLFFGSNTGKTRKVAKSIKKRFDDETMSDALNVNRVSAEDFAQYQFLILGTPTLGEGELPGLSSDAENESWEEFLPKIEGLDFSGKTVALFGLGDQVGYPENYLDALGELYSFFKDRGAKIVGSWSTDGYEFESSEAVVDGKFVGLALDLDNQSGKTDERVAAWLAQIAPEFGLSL

[10] = target: T5, apoflavodoxin from Anabaena PCC 7119, …; assay: ITC; 550 µM Spy dimer in the syringe, 50 µM AnFld F98N in the cell; 40 mM HEPES-KOH pH 7.5, 100 mM NaCl; 10 °C; one-site binding model; details: both partners purified
[11] = target: T4, apoflavodoxin from Anabaena PCC 7119, …; assay: ITC; 550 µM Spy dimer in the syringe, 50 µM AnFld WT in the cell; 40 mM HEPES-KOH pH 7.5, 100 mM NaCl; MicroCal iTC200; temperature not shown; details: both partners purified
[12] = target: T6, apoflavodoxin from Anabaena PCC 7119, …; assay: ITC + other: kinetic unfolding experiments; ITC: 1.2 mM Spy dimer in the syringe, 100 µM AnFld 2A in the cell; 40 mM HEPES-KOH pH 7.5, 100 mM NaCl; one-site or two-site models; two binding-competent conformations of AnFld 2A; details: both partners purified
[13] = target: T4, apoflavodoxin from Anabaena PCC 7119, …; assay: other fluorescence titration; equilibrium titration of Spy dimer into 17.2 µM native AnFld WT (square hyperbola, one-site) or 10 µM AnFld 2A (quadratic tight-binding model) in HN buffer, 25 °C; intrinsic tryptophan fluorescence at 340 nm; apparent; details: both partners purified
[14] = target: T6, apoflavodoxin from Anabaena PCC 7119, …; assay: as above; details: both partners purified
[15] = target: T4, apoflavodoxin from Anabaena PCC 7119, …; assay: other fluorescence titration; stopped-flow refolding: AnFld denatured in 5 M urea diluted 11.5-fold (0.09 µM final) into HN buffer (40 mM HEPES-KOH pH 7.5, 100 mM NaCl) with Spy dimer, 25 °C; normalised initial tryptophan fluorescence against Spy dimer concentration, one-site binding model; non-native state U* of AnFld; details: both partners purified

Molecule | Kd [1] [µM] | Kd [2] [µM] | Kd (Fyn SH3 (unfolded) SH3) [nM] | Kd (Fyn SH3 (native) SH3) [µM] | Ka [3] [M⁻¹] | Ka [4] [M⁻¹] | Ka [5] [M⁻¹] | Ka [6] [M⁻¹] | Kd [7] [µM] | stoichiometry N [8] [AnFld per Spy dimer] | stoichiometry N [9] [AzoFld per Spy dimer] | Kd [10] [nM] | Kd [11] [µM] | KD of one of two binding-competent conformations of AnFld 2A [12] | Kd [13] [µM] | Kd [14] [nM] | Kd [15] [nM]
Spy (from UniProt P77754) | 4.7 | 20.5 | 2900 | 50 | – | – | – | – | – | – | – | – | – | – | – | – | –
Spy (small bacterial ATP-independent chaperone) (natural protein, UniProt P77754 24-161, looked up, chaperone Spy; Used and counted as a dimer throughout ('Spy dimer'); also called Spy dimer; SpyD; source: E. coli BL21 (DE3), purified (Ni-His Trap, ULP1 cleavage, HiTrap Q, HiLoad Superdex 75); not shown: His6, N-terminal, cleaved; SUMO, N-terminal, cleaved) ADTTTAAPADAKPMMHHKGKFGPHQDMMFKDLNLTDAQKQQIREIMKGQRDQMKRPPLEERRAMHDIIASDTFDKVKAEAQIAKMEEQRKANMLAHMETQNKIYNILTPEQKKQFNANFEKRLTERPAAKGKMPATAE | – | – | – | – | 35500 | 801000 | 2.65e+06 | 4.37e+06 | 17.7 | 1 | 1 | 1800 | 28.2 | 0.23 µM and 0.38 µM | 40 | 100 | 350
